Assay: yeast display, Sf9 membrane polyspecificity reagent, FACS + sequencing; frameworks hold sequencing errors
How it was run: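 Galactose induction of a Saccharomyces cerevisiae BJ5465 synthetic nanobody display library ran 36–48 hours. The cells were then stained for 1 hour at 4 °C with 10% biotinylated, detergent-solubilized Sf9 membrane reagent, pulled down on streptavidin microbeads and FACS-sorted into low and high (top ~1%) gates on expression and reagent-binding fluorescence. Labels for polyreactivity follow the gate of origin.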

Sequence	polyreactivity (PSR sort gate)
QVQLVESGGGLVQAGGSLRLSCAASGRTFGYYTMGWYRQAPGKEREYVAAISGSGTITFYADSVKGRFTISRDNAKNTVYLQMNSLKPEDTAVYYCAADYRYGGSRGYRYDYWGQGTQVTVSS	low polyreactivity
QVQLVESGGGLVQAGGSLRLSCAASGRTFHAYAMGWYRQAPGKGRELVAAITRTGTTHYADSVKGRFTISRDNAKNTVYLQMNSLKPEDTAVYYCAAQHVRVDAQFVLQGYDYWGQGTQVTVSS	low polyreactivity
QVQLVESGGGLVQAGGSLRLSCAASGRTFHEYAMGWYRQAPGTERELVADISDGGSTNYADSVKGRFTISRDNAKNTVYLQMNSLKPEDTAVYYCNTDVPSAQYDYWGQGTQVTVSS	low polyreactivity
QVQLVESGGGLVQAGGSLRLSCAASGRTFHGYAMGWYRQAPGKERELVAAINASGGRTYYADSVKGRFTISRDNAKNTVYLQMNSLKPEDTAVYYCAVYSASFRYGLAYDYWGQGTQVTVSS	high polyreactivity
QVQLVESGGGLVQAGGSLRLSCAASGRTFHRYAMGWYRQAPGKERELVAAITSSGGSPNYADSVKGRFTISRDNAKNTVYLQMNSLKPEDTAVYYCATDRYRYTSHPWSRGFDYWGQGTQVTVSS	low polyreactivity
QVQLVESGGGLVQAGGSLRLSCAASGRTFHRYTMGWYRPAPGKERELVAAISRNGGSTYYADSVKGRFTISRDNAKNTVYLQMNSLKPEDTAVYYCNKPYWSDDYYSWGQGTQVTVSS	high polyreactivity
QVQLVESGGGLVQAGGSLRLSCAASGRTFHYNAMGWYRQAPGKERELVAAISFNGGGTYYADSVKGRFTISRDNAKNTVYLQMNSLKPEDTAVYYCATDVPSRYDYWGQGTQVTVSS	low polyreactivity
QVQLVESGGGLVQAGGSLRLSCAASGRTFHYYAMGWYRQAPGKERELVAAITRGGNTYYADSVKGRFTISRDNAKNTVYLQMNSLKPEDTAVYYCAKTAAVNGGYDYWGQGTQVTVSS	high polyreactivity
QVQLVESGGGLVQAGGSLRLSCAASGRTFIANAMGWSRQAPGKERELVAAISWSGGSTYYADSVKGRFTISRDNAKNTVYLQMNSLKPEDTAVYYCTAKRFRTGFDYWGQGTQVTVSS	low polyreactivity
QVQLVESGGGLVQAGGSLRLSCAASGRTFIFYAMGWYRPAPGNVRELVAAITLRGGGTDYADSVKGRFTISRDNAKNTVYLQMTSQQPEETAVYYCNADGYPVPRRFDPYSYLSDYWGQGTQVTVSS	low polyreactivity
QVQLVESGGGLVQAGGSLRLSCAASGRTFIFYAMGWYRQAPGNERELVAAITLRGGGTDYADSVKGRFTISRDNAKYNVYLQMNSQKPEETAVYYCNADGYAVPRWFDPYSYLSDYWGQGTQVTVSS	low polyreactivity
QVQLVESGGGLVQAGGSLRLSCAASGRTFIFYAMGWYRQAPVKERELVAAITYSGTSTYYADSVKGRFTISRDNAKNTVYLQMNSLKPEDTAVYYCAKDGQRDANYYWGQGTQVTVSS	low polyreactivity
QVQLVESGGGLVQAGGSLRLSCAASGRTFIGNALGWYRQAPGKERELVASITRSGGSTYYADSVKGRFTISRDNAKNTVYLQMNSLKPEDTAVYYCAARVYTYYYDLHKRYYWGQGTQVTVSS	high polyreactivity
QVQLVESGGGLVQAGGSLRLSCAASGRTFIGNAMGWYRQAPGKERELVAGIDSDGSTNYADSVKGRFTISRDNAKNTVYLQMNSLKPEDTAVYYCAAVQGYRFYEYYYWGQGTQVTVSS	low polyreactivity
QVQLVESGGGLVQAGGSLRLSCAASGRTFIKYALGSYRQAPGKERELVAAISRNGGSTNYADSVKGRFTISRDNAKNTVYLLMNSLKPEDPAVYYCAAVGTVSRTVGYNYWGQGSQVTVSS	high polyreactivity
QVQLVESGGGLVQAGGSLRLSCAASGRTFILNAMGWYRQAPGKERELVAAISWSGGSTYYADSVKGRFTISRDTAKNTVYLQMNSLKPEDTAVHYCATVRAWIPSGDYEYWGQGTQVTVSS	low polyreactivity

Sequence	polyreactivity (PSR sort gate)
QVQLVESGGGLVQAGGSLRLSCAASGRTFIPYAMGWYRQAPGKERELVAAISTTAGTTYYADSVKGRFTISRDNAKNTVYLQMNSLKPEDTAVYYCAARRRWYRRYGGDFWGQGTQVTVSS	high polyreactivity
QVQLVESGGGLVQAGGSLRLSCAASGRTFIPYAMGWYRQAPGKERELVAAISWSGGGTYYADSVKGRFTISRDNAKNTVYLQMNSLKPEDTAVYYCAAEYWDSYGYWTFDYWGQGTQVTVSS	high polyreactivity
QVQLVESGGGLVQAGGSLRLSCAASGRTFIPYAMGWYRQAPGKERQLVATIRRGGSTYYADSVKGRFTISRDNAKNTVYLQMNSLKPEDTAEYYCAATRYSFGPRRVDYWGQGTQVTVSS	high polyreactivity
QVQLVESGGGLVQAGGSLRLSCAASGRTFIRNAMGWYRQAPGKERELVAAISRSGGRTYYADSVKGRFTISRDNAKNTVYLQMNSLKPEDTAVYYCAAGSYQRYAFDYWGQGTQVTVSS	high polyreactivity
QVQLVESGGGLVQAGGSLRLSCAASGRTFIRNAMGWYRQAPGKERELVASISRRGGSTYYADSVKGRYTISRDNAKNTVYLQMNSLKPEDTAVYYCAKAYAFVTSGLGYDYWGQGTQVTVSS	high polyreactivity
QVQLVESGGGLVQAGGSLRLSCAASGRTFIRYAMGWYRQAPRKEREMVAAISYSGGTTYYADSVKGRFTISRDNAKNTVYLQMNSLKPEDTAVYYCARAGGYPLSRYGYWGQGTQVTVSS	high polyreactivity
QVQLVESGGGLVQAGGSLRLSCAASGRTFIRYCMGWYRQAPGKERELVAAITSRGGRTYYADSVKGRFTISRDNAKNTVYLQMNSLIREDTAVYYCAADTTWYSRYRHLWYRYYYWGQGTQVTVSS	high polyreactivity
QVQLVESGGGLVQAGGSLRLSCAASGRTFISIVMAWYRQAPGKERELVAAIRSSGRTYYADSVKGRFTISRDNAKITVYLQINSLKPVDTAVYYCAAPGGLLGSGYWGQGTLVTVSS	low polyreactivity
QVQLVESGGGLVQAGGSLRLSCAASGRTFIVNTMGWYRQAPGKERELVAAITARGGRTYYADSVKGRFTISRDNAKNTVYLQMNSLIPEDTAVYYCNASTPPREAERYYWGQGTQVTVSS	low polyreactivity
QVQLVESGGGLVQAGGSLRLSCAASGRTFIVYAMGWYRQAPGKERELVAGITRGSTNYADSVKGRFTISRDNAKNTVYLQMNSLKPEDTAVYYCAARSSRRGPISEGDYWGQGTQVTVSS	high polyreactivity
QVQLVESGGGLVQAGGSLRLSCAASGRTFIWYVMGWYRQAPGKERELVATISYGGITYYADSVKRRFTISRDNAKNTVYLQMNSLKPEDTAVYYCAAYKYTHKPHGDYWGQGTQVTVSS	high polyreactivity
QVQLVESGGGLVQAGGSLRLSCAASGRTFIYYAMGWNRQAPGKERELVAGITYSVGSTYYADSVKGRFTISRDNEKNTVYLQMNSLKPEDTAVYYCAADATFESDWGQGTQVTVSS	low polyreactivity
QVQLVESGGGLVQAGGSLRLSCAASGRTFIYYAMGWYRQAPGKERELVAAITYSGTSTYYADAVKGRFTISRDNAKNTVYLQMNSLKPEDTAVYYCAKDGQRDAKYNWGQGTQVTVSS	low polyreactivity
QVQLVESGGGLVQAGGSLRLSCAASGRTFIYYAMGWYRQAPGKERELVASITTGGRTYYADSVKGRFTISRDNAKNTVYLQMNSLKPEDTAGYYCAAVRRIRRPRYGYWGQGTQVTVSS	high polyreactivity
QVQLVESGGGLVQAGGSLRLSCAASGRTFKFNAMGWYRQAPGKERELVAGITWTGSTTSYADSVKGRFTISRDNAKNTVYLQMNSLKPEDTAVYYCDADKIRFWYHGFYYRGQGTQVTVSS	low polyreactivity
QVQLVESGGGLVQAGGSLRLSCAASGRTFKFNTMGWYRQAPGKEREVVAAISWTGAITHYADSVKGRFTISRDNAKNTVYLQMNSLKPEDTAVYYCNSDPYRRIYNYWGQGTQVTVSS	low polyreactivity

— the nanobody polyreactivity screen of Harvey et al. (2022)
